Data as given in US20240010735A1 (EISAI R AND D MANAGEMENT, published 2024).

Columns and labels:
Test in all cases: ELISA: Fc-His proteins (1 nM) captured on anti-6-His antibody, antibody B 10 µg/mL with human IgG 100 µg/mL, HRP anti-human kappa light chain antibody, OD450 as % of mouse EphA4-Fc-His
[1] = molecular target: T1, mouse EphA10 extracellular region-Fc-His protein (mouse; human, UniProt Q8BYG9 23-565)
T1 construct: extracellular domain; not shown: Fc region of human IgG1; histidine tag
T1 sequence (looked up): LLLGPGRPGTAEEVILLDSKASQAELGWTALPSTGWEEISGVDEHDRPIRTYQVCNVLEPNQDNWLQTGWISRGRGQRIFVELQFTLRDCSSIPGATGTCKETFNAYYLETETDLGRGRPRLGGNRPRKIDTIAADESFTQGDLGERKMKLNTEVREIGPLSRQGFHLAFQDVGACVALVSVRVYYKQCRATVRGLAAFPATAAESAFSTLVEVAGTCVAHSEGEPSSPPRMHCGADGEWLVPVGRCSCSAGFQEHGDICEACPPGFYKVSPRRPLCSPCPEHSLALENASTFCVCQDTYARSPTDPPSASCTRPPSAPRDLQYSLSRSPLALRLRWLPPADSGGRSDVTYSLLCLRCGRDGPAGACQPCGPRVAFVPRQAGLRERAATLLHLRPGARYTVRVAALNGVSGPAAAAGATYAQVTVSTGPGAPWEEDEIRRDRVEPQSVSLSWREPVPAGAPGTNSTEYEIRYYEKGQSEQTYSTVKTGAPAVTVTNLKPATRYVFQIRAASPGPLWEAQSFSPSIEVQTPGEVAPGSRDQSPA
Procedure: (§1) Rabbit anti-6-His antibodies (Bethyl Laboratories) were coated onto the wells of a 96-well plate (Nunc). After incubating at 4° C. overnight, the wells were blocked at room temperature for 1 hour by 1% Block Ace (DS Pharma Biomedical). After washing 3 times with 0.05% Tween 20/PBS (Thermo […]), each Eph receptor of mouse extracellular region-Fc-His protein (final concentration 1 nM) was seeded into each well, and incubated at room temperature for 1 hour. After washing 3 times, human IgG solution (100 μg/mL, Sigma) and antibody B (10 μg/mL) were supplemented to the wells, and incubated at room temperature for 1 hour. Horseradish peroxidase-labeled goat anti-human Kappa Light Chain antibody (IBL) was added, and incubated at room temperature for 1 hour. After washing 3 times, TMBZ (3,3′,5,5′-tetramethylbenzidine, Sigma) solution was added to the wells, and upon confirmation of modest coloring, an equal amount of quenching solution (1 N H₂SO₄, Wako Pure Chemicals) was added to the wells, and absorbance at 450 nm was read by a microplate reader (PerkinElmer).

[2] = molecular target: T2, mouse EphA3 extracellular region-Fc-His protein (mouse; human, UniProt P29319 21-540)
T2 construct: extracellular domain; not shown: Fc region of human IgG1; histidine tag
T2 sequence (looked up): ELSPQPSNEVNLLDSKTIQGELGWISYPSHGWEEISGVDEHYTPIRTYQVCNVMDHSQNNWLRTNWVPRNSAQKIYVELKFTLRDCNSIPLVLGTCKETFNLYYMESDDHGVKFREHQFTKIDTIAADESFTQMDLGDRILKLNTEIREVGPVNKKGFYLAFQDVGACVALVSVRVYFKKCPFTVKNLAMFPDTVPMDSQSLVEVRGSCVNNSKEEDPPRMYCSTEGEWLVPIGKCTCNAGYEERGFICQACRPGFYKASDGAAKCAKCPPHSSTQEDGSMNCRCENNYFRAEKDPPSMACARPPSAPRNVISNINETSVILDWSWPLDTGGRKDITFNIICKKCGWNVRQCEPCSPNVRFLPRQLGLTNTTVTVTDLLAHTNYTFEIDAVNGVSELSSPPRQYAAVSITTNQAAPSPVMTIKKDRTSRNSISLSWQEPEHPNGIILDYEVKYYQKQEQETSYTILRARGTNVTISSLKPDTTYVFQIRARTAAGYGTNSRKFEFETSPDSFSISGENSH
Procedure: as §1

[3] = molecular target: T3, mouse EphA1 extracellular region-Fc-His protein (mouse; human, UniProt Q60750 27-548)
T3 construct: extracellular domain; not shown: Fc region of human IgG1; histidine tag
T3 sequence (looked up): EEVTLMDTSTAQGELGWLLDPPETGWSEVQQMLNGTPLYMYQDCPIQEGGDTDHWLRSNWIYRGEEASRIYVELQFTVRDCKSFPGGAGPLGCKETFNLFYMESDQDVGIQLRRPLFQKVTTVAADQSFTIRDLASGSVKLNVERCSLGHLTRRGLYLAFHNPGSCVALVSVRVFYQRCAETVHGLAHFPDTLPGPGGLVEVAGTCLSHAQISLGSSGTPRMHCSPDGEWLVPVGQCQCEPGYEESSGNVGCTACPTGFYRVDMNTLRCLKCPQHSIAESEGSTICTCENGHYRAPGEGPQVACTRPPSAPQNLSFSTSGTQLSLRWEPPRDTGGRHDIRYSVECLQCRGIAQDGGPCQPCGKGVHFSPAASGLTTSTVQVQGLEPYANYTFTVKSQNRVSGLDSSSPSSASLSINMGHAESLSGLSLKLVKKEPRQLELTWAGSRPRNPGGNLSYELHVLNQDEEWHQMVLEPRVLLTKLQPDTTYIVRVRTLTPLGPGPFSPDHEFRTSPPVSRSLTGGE
Procedure: as §1

Measured: binding result

B1: humanized anti-EphA4 monoclonal antibody (antibody B) (antibody, human IgG2, V domains shown)
VH: QVQLVESGGGVVQPGRSLRLSCAVSGFSLTRFGVHWVRQAPGKGLEWVAVIWRGGSTDYNAAFMSRLTISKDNSKNTVYLQMNSLRAEDTAVYYCAKESLFGVYYDYGYYSMDYWGQGTTVTVSS
VL: DIQMTQSPSSLSASVGDRVTITCRASQEISGYLSWLQQKPGKAPKRLIYAASTLDSGVPSRFSGSRSGTEYTLTISSLQPEDFATYYCLQYASYPLTFGGGTKVEIKR
notes: expressed in Expi293F cells; also called humanized antibody of antibody A; HK2-42 / L1-8
no binding (tested: 10 µg/mL): all assays above
